Results on one substance are retold here after publication PMC2111714.

This test concerns the target Cross-linked succinyl Con A (resuccinylated) (Canavalia ensiformis (jack bean)). As to the kind of experiment: radioligand binding.

Turning to “Dolichos biflorus lectin (natural protein)”, the glycoprotein specifically bound amounted to 96 ng/plate.
